Target: VC-Vam7 (yeast) (UniProt P32912)
Assay: split reporter

Sequence of UniProt P32912 (P32912 whole entry): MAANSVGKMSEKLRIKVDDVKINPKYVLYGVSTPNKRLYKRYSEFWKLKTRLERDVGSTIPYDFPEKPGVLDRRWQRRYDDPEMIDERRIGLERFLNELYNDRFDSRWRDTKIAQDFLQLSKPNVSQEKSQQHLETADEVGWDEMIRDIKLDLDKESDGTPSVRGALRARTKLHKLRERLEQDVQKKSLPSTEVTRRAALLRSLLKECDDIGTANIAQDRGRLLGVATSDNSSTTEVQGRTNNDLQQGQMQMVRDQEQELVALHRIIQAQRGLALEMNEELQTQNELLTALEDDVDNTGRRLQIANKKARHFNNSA

- percent of cells with a vYFP signal: > 90 % of cells
Substance: VN-Atg11 (from UniProt Q12527 1-1178) (natural protein)
